Earlier results, collected in article PMC7463749.

What was measured:
[1] = target: BB1R (Homo sapiens) (UniProt P28336)
[2] = target: BB2R (Homo sapiens) (UniProt P30550)
UniProt P30550, sequence (P30550 whole entry): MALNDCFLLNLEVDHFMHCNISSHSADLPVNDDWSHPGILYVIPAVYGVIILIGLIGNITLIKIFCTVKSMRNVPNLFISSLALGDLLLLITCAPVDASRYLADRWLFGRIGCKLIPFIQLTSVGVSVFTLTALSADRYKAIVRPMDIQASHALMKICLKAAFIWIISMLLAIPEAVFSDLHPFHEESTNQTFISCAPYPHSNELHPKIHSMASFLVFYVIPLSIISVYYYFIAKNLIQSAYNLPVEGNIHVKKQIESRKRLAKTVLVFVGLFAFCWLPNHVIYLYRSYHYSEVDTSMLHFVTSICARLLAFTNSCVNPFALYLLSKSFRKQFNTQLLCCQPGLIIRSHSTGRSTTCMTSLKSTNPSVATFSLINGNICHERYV

UniProt P28336, sequence (P28336 whole entry): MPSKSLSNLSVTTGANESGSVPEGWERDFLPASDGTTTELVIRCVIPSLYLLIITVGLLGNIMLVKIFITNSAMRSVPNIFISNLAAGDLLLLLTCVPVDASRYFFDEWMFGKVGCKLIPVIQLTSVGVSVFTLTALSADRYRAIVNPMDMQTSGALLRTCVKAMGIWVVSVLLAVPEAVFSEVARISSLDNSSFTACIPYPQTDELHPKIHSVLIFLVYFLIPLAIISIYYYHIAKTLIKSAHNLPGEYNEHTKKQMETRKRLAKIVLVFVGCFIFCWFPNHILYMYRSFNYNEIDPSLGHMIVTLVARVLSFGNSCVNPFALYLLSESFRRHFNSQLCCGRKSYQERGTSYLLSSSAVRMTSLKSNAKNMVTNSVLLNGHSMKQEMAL

| Ki [1] [nM] | Ki [2] [nM] | Substance |
| --- | --- | --- |
| 0.052 | – | neuromedin B (from UniProt P08949) |
| – | 0.19 | gastrin-releasing peptide (from UniProt P07492) |
